We go through twelve variants from FireProtDB (doi:10.1073/pnas.84.13.4441).

To fix the notation:
B1: Tryptophan synthase alpha chain, P0A877 (parent)
chain: MERYESLFAQLKERKEGAFVPFVTLGDPGIEQSLKIIDTLIEAGADALELGIPFSDPLADGPTIQNATLRAFAAGVTPAQCFEMLALIRQKHPTIPIGLLMYANLVFNKGIDEFYAQCEKVGVDSVLVADVPVEESAPFRQAALRHNVAPIFICPPNADDDLLRQIASYGRGYTYLLSRAGVTGAENRAALPLNHLVAKLKEYNAAPPLQGFGISAPDQVKAAIDAGAAGAISGSAIVKIIEQHINEPEKMLAALKVFVQPMKAATRS

Variants of B1 are the subject of the data set. As to conditions: Escherichia coli (strain K12), 25 °C, GdnHCl, CD, Potassium phosphate 20 mM, reversible: yes, structure 1WQ5, whole UniProt chain shown.

Regarding MERYESLFAQLKERKEGAFVPFVTLGDPGIEQSLKIIDTLIEAGADALFLGIPFSDPLADGPTIQNATLRAFAAGVTPAQCFEMLALIRQKHPTIPIGLLMYANLVFNKGIDEFYAQCEKVGVDSVLVADVPVEESAPFRQAALRHNVAPIFICPPNADDDLLRQIASYGRGYTYLLSRAGVTGAENRAALPLNHLVAKLKEYNAAPPLQGFGISAPDQVKAAIDAGAAGAISGSAIVKIIEQHINEPEKMLAALKVFVQPMKAATRS [E49F], for the setting “pH 7”, the “ddG of mutation (higher = less stable)” value was found to be 0.86 kcal/mol and the unfolding free energy turned out to be 17.3 kcal/mol.
Regarding MERYESLFAQLKERKEGAFVPFVTLGDPGIEQSLKIIDTLIEAGADALKLGIPFSDPLADGPTIQNATLRAFAAGVTPAQCFEMLALIRQKHPTIPIGLLMYANLVFNKGIDEFYAQCEKVGVDSVLVADVPVEESAPFRQAALRHNVAPIFICPPNADDDLLRQIASYGRGYTYLLSRAGVTGAENRAALPLNHLVAKLKEYNAAPPLQGFGISAPDQVKAAIDAGAAGAISGSAIVKIIEQHINEPEKMLAALKVFVQPMKAATRS [E49K], under “pH 7”, the “ddG of mutation (higher = less stable)” value is -0.2 kcal/mol and the unfolding free energy came out at 18 kcal/mol. In addition, where the note is “pH 9”, the “ddG of mutation (higher = less stable)” value was -0.39 kcal/mol and the unfolding free energy turned out to be 18.4 kcal/mol.
In the case of MERYESLFAQLKERKEGAFVPFVTLGDPGIEQSLKIIDTLIEAGADALDLGIPFSDPLADGPTIQNATLRAFAAGVTPAQCFEMLALIRQKHPTIPIGLLMYANLVFNKGIDEFYAQCEKVGVDSVLVADVPVEESAPFRQAALRHNVAPIFICPPNADDDLLRQIASYGRGYTYLLSRAGVTGAENRAALPLNHLVAKLKEYNAAPPLQGFGISAPDQVKAAIDAGAAGAISGSAIVKIIEQHINEPEKMLAALKVFVQPMKAATRS [E49D], where the note is “pH 7”, the “ddG of mutation (higher = less stable)” value was 0.8 kcal/mol and the unfolding free energy came out at 17.4 kcal/mol. Where the note is “pH 9”, the “ddG of mutation (higher = less stable)” value is 0.03 kcal/mol and the unfolding free energy was 17.9 kcal/mol.
MERYESLFAQLKERKEGAFVPFVTLGDPGIEQSLKIIDTLIEAGADALILGIPFSDPLADGPTIQNATLRAFAAGVTPAQCFEMLALIRQKHPTIPIGLLMYANLVFNKGIDEFYAQCEKVGVDSVLVADVPVEESAPFRQAALRHNVAPIFICPPNADDDLLRQIASYGRGYTYLLSRAGVTGAENRAALPLNHLVAKLKEYNAAPPLQGFGISAPDQVKAAIDAGAAGAISGSAIVKIIEQHINEPEKMLAALKVFVQPMKAATRS [E49I]: under “pH 7”, the “ddG of mutation (higher = less stable)” value was -0.46 kcal/mol and the unfolding free energy was found to be 18.6 kcal/mol. For the same variant, under “pH 9”, the “ddG of mutation (higher = less stable)” value is -1.24 kcal/mol and the unfolding free energy came to 19.2 kcal/mol.
For MERYESLFAQLKERKEGAFVPFVTLGDPGIEQSLKIIDTLIEAGADALCLGIPFSDPLADGPTIQNATLRAFAAGVTPAQCFEMLALIRQKHPTIPIGLLMYANLVFNKGIDEFYAQCEKVGVDSVLVADVPVEESAPFRQAALRHNVAPIFICPPNADDDLLRQIASYGRGYTYLLSRAGVTGAENRAALPLNHLVAKLKEYNAAPPLQGFGISAPDQVKAAIDAGAAGAISGSAIVKIIEQHINEPEKMLAALKVFVQPMKAATRS [E49C], under “pH 7”, the “ddG of mutation (higher = less stable)” value is -0.01 kcal/mol and the unfolding free energy was 18.2 kcal/mol. In addition, where the note is “pH 9”, the “ddG of mutation (higher = less stable)” value was 0.13 kcal/mol and the unfolding free energy was 17.8 kcal/mol.
For MERYESLFAQLKERKEGAFVPFVTLGDPGIEQSLKIIDTLIEAGADALHLGIPFSDPLADGPTIQNATLRAFAAGVTPAQCFEMLALIRQKHPTIPIGLLMYANLVFNKGIDEFYAQCEKVGVDSVLVADVPVEESAPFRQAALRHNVAPIFICPPNADDDLLRQIASYGRGYTYLLSRAGVTGAENRAALPLNHLVAKLKEYNAAPPLQGFGISAPDQVKAAIDAGAAGAISGSAIVKIIEQHINEPEKMLAALKVFVQPMKAATRS [E49H], for the setting “pH 7”, the “ddG of mutation (higher = less stable)” value was -0.33 kcal/mol and the unfolding free energy amounted to 18.5 kcal/mol. Further, for the setting “pH 9”, the “ddG of mutation (higher = less stable)” value was -0.67 kcal/mol and the unfolding free energy turned out to be 18.6 kcal/mol.
For MERYESLFAQLKERKEGAFVPFVTLGDPGIEQSLKIIDTLIEAGADALQLGIPFSDPLADGPTIQNATLRAFAAGVTPAQCFEMLALIRQKHPTIPIGLLMYANLVFNKGIDEFYAQCEKVGVDSVLVADVPVEESAPFRQAALRHNVAPIFICPPNADDDLLRQIASYGRGYTYLLSRAGVTGAENRAALPLNHLVAKLKEYNAAPPLQGFGISAPDQVKAAIDAGAAGAISGSAIVKIIEQHINEPEKMLAALKVFVQPMKAATRS [E49Q], under “pH 7”, the “ddG of mutation (higher = less stable)” value stood at 0.23 kcal/mol and the unfolding free energy is 17.9 kcal/mol.
As for MERYESLFAQLKERKEGAFVPFVTLGDPGIEQSLKIIDTLIEAGADALGLGIPFSDPLADGPTIQNATLRAFAAGVTPAQCFEMLALIRQKHPTIPIGLLMYANLVFNKGIDEFYAQCEKVGVDSVLVADVPVEESAPFRQAALRHNVAPIFICPPNADDDLLRQIASYGRGYTYLLSRAGVTGAENRAALPLNHLVAKLKEYNAAPPLQGFGISAPDQVKAAIDAGAAGAISGSAIVKIIEQHINEPEKMLAALKVFVQPMKAATRS [E49G], where the note is “pH 7”, the “ddG of mutation (higher = less stable)” value was -0.08 kcal/mol and the unfolding free energy was 18.2 kcal/mol. Also, for the setting “pH 9”, the “ddG of mutation (higher = less stable)” value is -0.6 kcal/mol and the unfolding free energy was found to be 18.6 kcal/mol.
On to MERYESLFAQLKERKEGAFVPFVTLGDPGIEQSLKIIDTLIEAGADALLLGIPFSDPLADGPTIQNATLRAFAAGVTPAQCFEMLALIRQKHPTIPIGLLMYANLVFNKGIDEFYAQCEKVGVDSVLVADVPVEESAPFRQAALRHNVAPIFICPPNADDDLLRQIASYGRGYTYLLSRAGVTGAENRAALPLNHLVAKLKEYNAAPPLQGFGISAPDQVKAAIDAGAAGAISGSAIVKIIEQHINEPEKMLAALKVFVQPMKAATRS [E49L], for which, under “pH 7”, the “ddG of mutation (higher = less stable)” value was -0.44 kcal/mol and the unfolding free energy was 18.6 kcal/mol. For the same variant, where the note is “pH 9”, the “ddG of mutation (higher = less stable)” value was -1.04 kcal/mol and the unfolding free energy turned out to be 19 kcal/mol.
Turning to MERYESLFAQLKERKEGAFVPFVTLGDPGIEQSLKIIDTLIEAGADALALGIPFSDPLADGPTIQNATLRAFAAGVTPAQCFEMLALIRQKHPTIPIGLLMYANLVFNKGIDEFYAQCEKVGVDSVLVADVPVEESAPFRQAALRHNVAPIFICPPNADDDLLRQIASYGRGYTYLLSRAGVTGAENRAALPLNHLVAKLKEYNAAPPLQGFGISAPDQVKAAIDAGAAGAISGSAIVKIIEQHINEPEKMLAALKVFVQPMKAATRS [E49A], under “pH 7”, the “ddG of mutation (higher = less stable)” value turned out to be 0.08 kcal/mol and the unfolding free energy was found to be 18.1 kcal/mol. For the setting “pH 9”, the “ddG of mutation (higher = less stable)” value was -0.59 kcal/mol and the unfolding free energy came to 18.6 kcal/mol.
Turning to MERYESLFAQLKERKEGAFVPFVTLGDPGIEQSLKIIDTLIEAGADALMLGIPFSDPLADGPTIQNATLRAFAAGVTPAQCFEMLALIRQKHPTIPIGLLMYANLVFNKGIDEFYAQCEKVGVDSVLVADVPVEESAPFRQAALRHNVAPIFICPPNADDDLLRQIASYGRGYTYLLSRAGVTGAENRAALPLNHLVAKLKEYNAAPPLQGFGISAPDQVKAAIDAGAAGAISGSAIVKIIEQHINEPEKMLAALKVFVQPMKAATRS [E49M], under “pH 7”, the “ddG of mutation (higher = less stable)” value was determined as 0.05 kcal/mol and the unfolding free energy is 18.1 kcal/mol. Under “pH 9”, the “ddG of mutation (higher = less stable)” value is -0.52 kcal/mol and the unfolding free energy amounted to 18.5 kcal/mol.
As for MERYESLFAQLKERKEGAFVPFVTLGDPGIEQSLKIIDTLIEAGADALPLGIPFSDPLADGPTIQNATLRAFAAGVTPAQCFEMLALIRQKHPTIPIGLLMYANLVFNKGIDEFYAQCEKVGVDSVLVADVPVEESAPFRQAALRHNVAPIFICPPNADDDLLRQIASYGRGYTYLLSRAGVTGAENRAALPLNHLVAKLKEYNAAPPLQGFGISAPDQVKAAIDAGAAGAISGSAIVKIIEQHINEPEKMLAALKVFVQPMKAATRS [E49P], the “ddG of mutation (higher = less stable)” value runs as follows: (pH 7) 0 kcal/mol; (pH 9) -0.8 kcal/mol. The unfolding free energy is 18.2 kcal/mol (pH 7) and 18.8 kcal/mol (pH 9).
